# Laboratory results taken from US20140045756A1 (NEW YORK UNIVERSITY, published 2014).
# T1: TNFR2 (TNFRSF1B/CD120b), yeast two-hybrid construct (mouse (clone from a murine embryonic …, UniProt P25119 23-258))
# T1 construct: one molecule is used for all Y2H assays; also called cell surface TNFR2
# T1 sequence (looked up): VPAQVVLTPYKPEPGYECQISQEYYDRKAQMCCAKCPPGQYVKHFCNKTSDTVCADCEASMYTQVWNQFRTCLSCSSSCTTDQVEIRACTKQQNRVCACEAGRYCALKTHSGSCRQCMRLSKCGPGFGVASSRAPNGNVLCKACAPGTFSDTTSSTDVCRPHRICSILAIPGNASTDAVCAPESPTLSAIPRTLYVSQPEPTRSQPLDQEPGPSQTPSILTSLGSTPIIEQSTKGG
# B1: PGRN granulin unit C (yeast two-hybrid construct) (peptide)
# chain: VPCDNVSSCPSSDTCCQLTSGEWGCCPIPEAVCCSDHQHCCPQGYTCVAEGQCQ
# notes: also called granulin C
# B2: PGRN granulin unit A (yeast two-hybrid construct) (peptide)
# chain: DVKCDMEVSCPDGYTCCRLQSGAWGCCPFTQAVCCEDHIHCCPAGFTCDTQKGTCE
# notes: also called granulin A
# B3: PGRN linker region P4 (yeast two-hybrid construct) (peptide)
# chain: LSKENATTDLLTKLPAHTVGD
# B4: PGRN linker region P3 (yeast two-hybrid construct) (peptide)
# chain: ITPTGTHPLAKKLPAQRTNRAVALSSS
# B5: PGRN linker region P5 (yeast two-hybrid construct) (peptide)
# chain: EQGPHQVPWMEKAPAHLSLPDPQALKRDV
# B6: PGRN granulin unit F (yeast two-hybrid construct) (peptide)
# chain: AIQCPDSQFECPDFSTCCVMVDGSWGCCPMPQASCCEDRVHCCPHGAFCDLVHTRCI
# notes: also called granulin F
# Target: T1, TNFR2 (TNFRSF1B/CD120b), yeast …
# Experiment: yeast two-hybrid, β-galactosidase assay
# Protocol: Assay of protein-protein interactions using the Y2H system. Independent yeast colonies were analyzed for the interaction of two proteins, one of which was fused to the Ga14 DNA binding domain and the other, to the VP16 transactivation domain. Previously published procedures were followed for 1) growing and transforming the yeast strain MAV203 with the selected plasmids; and 2) determining β-galactosidase activity and growth phenotypes on selective media lacking tryptophan, leucine, histidine, and uracil.
row,Binder,binding result
1,B1,no binding
2,B2,no binding
3,B3,no binding
4,B4,no binding
5,B5,no binding
6,B6,no binding
